The source of these data is patent publication US20260116951A1 (DUCENTIS BIOTHERAPEUTICS, published 2026).

One experiment addresses T1, Human CD200R1L (human, UniProt Q6Q8B3 24-239, limits assumed).
T1 construct: nothing is said of the reagent
T1 sequence (looked up): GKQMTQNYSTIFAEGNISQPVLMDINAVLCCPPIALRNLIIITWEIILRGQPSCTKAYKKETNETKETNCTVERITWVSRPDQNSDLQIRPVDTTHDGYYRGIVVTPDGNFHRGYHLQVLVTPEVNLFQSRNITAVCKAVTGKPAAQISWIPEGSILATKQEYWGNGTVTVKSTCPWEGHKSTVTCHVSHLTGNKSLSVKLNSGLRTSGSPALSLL
Kind of experiment: SPR (BIAcore). On the technique in general: SPR reads the build-up and loss of mass on a sensor chip optically.

The target in experiment [1] is T2, Recombinant Human CD200R, His-tagged (Creative Biomart CD200R1-320H) (human, UniProt Q8TD46 27-266).
T2 construct: Bought; also called human CD200 receptor; not shown: His tag
T2 sequence (looked up): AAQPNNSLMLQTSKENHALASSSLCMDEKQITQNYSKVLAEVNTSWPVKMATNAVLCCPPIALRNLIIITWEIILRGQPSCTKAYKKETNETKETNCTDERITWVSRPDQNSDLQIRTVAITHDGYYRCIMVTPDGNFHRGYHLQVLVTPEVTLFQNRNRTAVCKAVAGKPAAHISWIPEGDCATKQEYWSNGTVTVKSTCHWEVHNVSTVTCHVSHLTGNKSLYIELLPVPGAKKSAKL
Briefly: SPR (BIAcore T200), CD200-Fc captured on anti-human Fc, CD200R flowed, 25 C, 1:1 fit, mean of two runs. The procedure:
The experiments were performed on a GE Healthcare BIAcore T200. Human, cynomolgus and mouse CD200R proteins were purchased from Creative Biomart (CD200R1-320H, CD200R1-3483C, CD200R1-3280M). All measurements were performed in duplicate.
(§1) For human CD200 constructs: anti-human Fc (GE Healthcare) was covalently immobilized on a BIAcore CM5 sensor chip (Cytiva, BR100530) by amine coupling using a Cytiva kit (BR100839) following the manufacturer's instructions, targeting immobilization of 8,000-11,000 RU. CD200-Fc proteins were diluted to 0.5 μg/mL to 4 μg/mL in running Buffer (1×HBS-EP+pH7.4 (Cytiva BR100669), HEPES Buffered Saline pH 7.4 containing 3 mM EDTA and 0.05% v/v Surfactant P20) and flowed for 25 to 100 seconds at 10 μL/min over the immobilized Anti-Human IgG Fc, with a stabilization time of 60 seconds. Between 35 and 250 RUs of CD200-Fc were captured, with higher RUs used for cynomolgus CD200R binding experiments. […] Analysis temperature was 25° C. This was followed by regeneration of the surface with 30-90 second pulse of 3M MgCl₂ flowed at […] flow rate followed by stabilization of the surface with 60 second flow of running buffer.
(§2) For mouse CD200 constructs, muCD200R-Fc (Creative Biomart CD200R1-458M) diluted to 1 μg/mL in running buffer was flowed over the immobilized Anti-Human IgG Fc, with CD200 monomers serially diluted and flowed over captured CD200R. Other details were as above. Data analysis: experimental sensorgrams were analyzed in BIAevaluation software (GE Healthcare). The curves obtained were fitted to 1:1 Langmuir binding model by setting Rmax and RI as local parameters. Rate equations using standard parameters (e.g. ligand concentration, time) were used for iterative curve fitting. Closeness of fit was determined by algorithms provided by the manufacturer in the BIAevaluation software, and data accepted if the Chi² value was less than 10% of Rₘₐₓ, and the U value was less than or equal to 15.

In experiment [2] the target is T2, Recombinant Human CD200R, His-tagged …. Briefly: SPR, CD200R flowed over immobilized CD200-Fc, 25 C, 1:1 fit, mean of 2 experiments with standard deviation. The procedure:
as §1
Curves obtained were fitted to 1:1 Langmuir binding model by setting Rmax and RI as local parameters. Rate equations using standard parameters (e.g. ligand concentration, time) were used for iterative curve fitting. […] Means of 2 experiments carried out on the same day are shown with standard deviation. Residue numbering for CD200 proteins refers to the pre-protein, containing a signal peptide which is cleaved during insertion into the endoplasmic reticulum.

Experiment [3] has the same target. Kind of experiment: SPR (BIAcore), DS-118 captured (0.5 ug/mL), HuCD200R1 flowed at 100 nM to 6.25 nM, 25 C, 1:1 Binding model, run 1. The procedure:
as §1, §2

Experiment [4] has as its target T3, Recombinant Cyno CD200R, His-tagged (Creative Biomart CD200R1-3483C) (cynomolgus monkey).
T3 construct: Bought; also called cynomolgus CD200R1; cynomolgus CD200R
Briefly: SPR (BIAcore), DS-118 captured (0.5 ug/mL), CynoCD200R1 flowed at 1000 nM to 62.5 nM, 25 C, 1:1 Binding model, run 1. As for the experimental part:
as §1, §2

Experiment [5] has as its target T3, Recombinant Cyno CD200R, His-tagged …. Kind of experiment: SPR (BIAcore), DS-118 captured (0.5 ug/mL), CynoCD200R1 flowed at 1000 nM to 62.5 nM, 25 C, 1:1 Binding model, run 2. As for the experimental part:
as §1, §2

Another experiment concerns the target T4, Human PBMCs.
T4 construct: No receptor was assigned; also called human PBMCs, gated on live cells
Briefly: Flow cytometry, % binding on human PBMCs gated on live cells, 1 hour at 37 C, anti-human secondary antibody; the target protein on the cells is not named. As for the experimental part: PBMC cells were re-suspended with a density of 0.1 million cells per assay point, with 50 μL FACS buffer (1×PBS+2% FBS). Dilutions of huCD200-Fc in 50 μL were added, starting at 10 μg/mL with 3-fold dilutions up to 10 concentrations with FACS buffer, and incubated for 1-hour at 37° C. At the end of each time point, cells were collected and washed (addition of 200 μL FACS buffer and centrifugation at 1400 RPM). 10 μg/mL of anti-human secondary antibody (Abcam Ab98596) was added together with excess Fc block (Innovex Biosciences no. NB309), and incubated for 30 minutes at 4° C. Cells were washed post incubation and stained to check viability (1 μL dye per million cells per mL 1×PBS, ThermoFisher C34557A) for 20 minutes at 4° C. Cells were washed and fixed with Fixation buffer (100 μL per test, BD Sciences 554655) at 4° C. for 20 minutes. Post incubation, cells were washed and the pellet was re-suspended in FACS buffer (100 μL per test) for data acquisition on the flow cytometer.
(In flow cytometry, cells or beads pass a laser one at a time.)

B1: DS-118 (mutated human CD200-Fc fusion protein, K130Y, I131Y, IgG4 S228P Fc) (Fc fusion)
chain: QVQVVTQDEREQLYTPASLKCSLQNAQEALIVTWQKKKAVSPENMVTFSENHGVVIQPAYKDKINITQLGLQNSTITFWNITLEDEGCYMCLFNTFGFGYYSGTACLTVYVQPIVSLHYKFSEDHLNITCSATARPAPMVFWKVPRSGIENSTVTLSHPNGTTSVTSILHIKDPKNQVGKEVICQVLHLGTVTDFKQTVNKGPPCPPCPAPEFLGGPSVFLFPPKPKDTLMISRTPEVTCVVVDVSQEDPEVQFNWYVDGVEVHNAKTKPREEQFNSTYRVVSVLTVLHQDWLNGKEYKCKVSNKGLPSSIEKTISKAKGQPREPQVYTLPPSQEEMTKNQVSLTCLVKGFYPSDIAVEWESNGQPENNYKTTPPVLDSDGSFFLYSRLTVDKSRWQEGNVFSCSVMHEALHNHYTQKSLSLSLGK
notes: also called mutated CD200-Fc; mutant CD200-Fc
B1: the binding result with Human CD200R1L is “no binding”. Further, the Kd in experiment [1] is 1.3 nM; in experiment [2], 1.3 nM; in experiment [3], 1.21 nM; in experiment [4], 207 nM; in experiment [5], 204 nM. Further, the koff in experiment [1] was 0.000304 s⁻¹; in experiment [3] it was 0.000278 s⁻¹; in experiment [4], 0.0164 s⁻¹; in experiment [5] it was 0.0596 s⁻¹. Besides, the kon in experiment [1] worked out at 231000 M⁻¹ s⁻¹; in experiment [3] it was 230000 M⁻¹ s⁻¹; in experiment [4] it was 79200 M⁻¹ s⁻¹; in experiment [5], 292000 M⁻¹ s⁻¹. In addition, the EC50 with Human PBMCs came out at 0.29 µg/mL.

The term Kd denotes a measure of binding affinity in units of concentration. What is called koff is the first-order rate constant of dissociation. For orientation: kon means a measure of how fast the partners come together. As usually defined, the EC50 is the concentration giving half of the maximal effect. Lower therefore signals greater potency.
